Experiments:
[1] = target: FlhF-His6 (Vibrio alginolyticus FlhF with a C-terminal His6 tag) (V. alginolyticus); assay: SEC; purified FlhF kept on ice 10 min with 1 mM GTP; SuperDex 75 Increase in 20 mM Tris-HCl pH 8.0, 300 mM NaCl, 10 mM MgCl2, 1 mM GTP; fractions blotted with anti-FlhF antibody
[2] = target: FlhF-His6 (Vibrio alginolyticus FlhF with a C-terminal His6 tag) (V. alginolyticus)

Row | stoichiometry N [1] | GTPase activity of FlhF: inorganic phosphate released in 30 min by 1 μM FlhF mixed with 1 μM FlhG (FlhF alone 5.3 μM; background sample 4.3 μM) [2] | Substance
1 | 2 |  | FlhF-His6 (Vibrio alginolyticus FlhF with a C-terminal His6 tag) (enzyme)
2 |  | 8.5 µM | His-tagged FlhG (his6-tev-flhG in pTrcHisB) (enzyme)
